Test results from the nanobody polyreactivity screen of Harvey et al. (2022).

Experiment: yeast display, Sf9 membrane polyspecificity reagent, FACS + sequencing; frameworks hold sequencing errors
Procedure, shortened: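 Polyreactivity labels are assigned by the sorting gate from which each nanobody was recovered. The gates were low and high (top ~1%), set on anti-HA fluorescence for expression and streptavidin fluorescence for reagent binding. Before sorting, galactose-induced (36–48 hours) yeast display cells were stained for 1 hour at 4 °C with 10% biotinylated, detergent-solubilized Sf9 membrane reagent.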

Sequence | polyreactivity (PSR sort gate)
QVQLGESGGGLVQAGGSLRLSCAASGSIFGLYAMGWYRQAPGKERELVATITSGSSTTYADSVKGRFTISRDNAKNTVYLQMNSLKPEVTAVYYCGVDDLYGFDYWGQGTQVTVSS | low polyreactivity
QVQLVESGGGLVQAGGSLRLSCAASGRSLYNTMGWYRQAPGKERELVAGINWGGGRTYADSVKGRFTISRDNAKNTVYLQMNSMKPEDTAVYYCAADVNYQSRSHIVDYEYGYWGQGTQVTVSS | low polyreactivity
QVQLVESGGGLVQAGGSLRLSCAASGSTFSQNAMGWYRQAPGKERELVAVISSSGGRTNYADSVKGRFTISRDNAKNTVYLQMNSLKPEDTAVYYCAKRLRVLYYYWGQGTQVTVSS | high polyreactivity
QVQLVESGGGLVQAGGSHRLSCAASGRTFKGNAMGWYRQAPGQERELVAAISSRGGRTFYADSVKGRYTISRDNAKNTVYLQMNSLKPDDTAVYDCAAYSPLTKTPDSPVRYDYWGQGTQVTVSS | high polyreactivity
QDQLVESGGGLVQAGGSLRLSCAASGSTFIDNVMGWYRQPPGQERELVAAINSGGSTDYADSLKGRFTISRDNAKNTVYLLMNRLKPEDTAVYYCNAYHIVIYDYWGQGTQVTVSS | low polyreactivity
QVQLVESGGGLVQAGGSLRLSCAASGSTFLDNAMGWYIQAPGKERELVAAITQSGSSTYYPDSVKGRFTISRDTAKNTVYLQMNSLKPEATAVYYCAADVPNISFDYWGQGTQVTVSS | low polyreactivity
QVQLVESGGGLVQAGGRLRLSCAASGSIFTYYVMGWYRQAPGKERELVAAITISGGSTYYADSVKGRFTISRDNAKNTVYLQMNRLNPEDTAVYYCAAEEVYYEADGFQNSYDYWGQGTQVTVSS | high polyreactivity
QVQLEESGGGLVQAGGSLRLSCAASGSTLIYNAMGWYRPAPGKERELVAAISASGTRTYYADSVKGRFTISRDNAKNTVYLQMNSLKPEDTAVYYCNALRRAPRAEYYYWGQGTQVTVSS | high polyreactivity
QVQLVESGGGLVQAGRSLCLSCAASGSIFINAMGWYRQAPGKERELVATIRWRGGTTYYADSVKGRFTISRDNAKNTVDLQMNSLKPEATAVYYCAADRSYYPDTRTTYGYNYWGQGTQVTVSS | low polyreactivity
QFQLVESGGGLVQAGGSLRLSCAASGRTFKVYAMGWYRQAPGKERELVAAITGGGSTNYADSEKGRFTISRDNAKNTVYLQMNRLKAEDTAVYYGNARYYYRLVKWSRFSSYDYWGQGTQVTVSS | low polyreactivity
QVQLVESGGGLVQAGGRLRLSCAASGRIFRRYAMGWYRQAPGKERELVAAITSSGTSTHYADSVKGRFTISRDNAKNTVYLQMNSLKPEDTAVYYCAARYSTYPWYNYCGQGTQVTVSS | high polyreactivity
QVQLVESGGGLVQAGGSLRLICADSGSIFVYYLMVWYRQAPGKEREFVAAISYGGGSTYYADSVKGRFTISRDNAKNTVYLQMNSLKPEDTAVYYCNTDIYSDYVCEEYEYWGQGTQVTLSS | high polyreactivity
QVQLVESGGGLVQAGGSLRLSCAASGRIFDGYAMGWYRQAPGTERELVAAITDSGGSTYYADSVKGRFTISRDNAKNTVYLQMNSLKPEDTAVYYCAAEEIDYTDVTSGYEYWGQGTQVTVSS | high polyreactivity
QVQLVESGRGLVQAGGSLRLSCDSSGLTFTYNAMGWYRQAPGKERELVAVISYGGGSTYYADSVKGRFTISRDNAKNTVYLQMNSLNPEDNAVYYCAAVYGGYLYYYGGYAEYDYWGQGTQVTVSS | low polyreactivity
QVQLVESGGGLVQAGGSLRLSCAASGLTFHPYAMGWYRQAPGKERELVAAISSRGTSTYYADSVKGRFTISRDNAKNTVYLQMNSLKPEDTAVYYCAAEVITIGLYRYGYWGQGTQVTVSS | high polyreactivity
QVHLVESGGGLVQAGGSLRLSCAASGLILSYNAMAWYRQAPGKERELDAAISYSGGSTYYADSVKGRFTITRDNAKNTVYLQMNSLITEDSAVYYCAAVWRRQGSAYLGSYGYDYWGQVTQVTVSS | high polyreactivity
QVQLVESGGGLVQAGGSLRLSCAASGGTFPRYAMGWYRQAPGKERELVAAITRSGGRTYYADSVKGRFTISRDNAKNTVYLQMNSLKPEDTAVYYCAADAPDYRMDYWGQGTQVTVSS | high polyreactivity
QVQLEESGGGLVQAGGSLRLSCAASGFIFFAYAMGWYRQAPGKERELVAAISRTGGSTYYADSVKGRFTISRDNAKNTVYLLMNSLKPEDTAVYYCAAVVSRTYQWWTYDYWGQGTQVTVSS | high polyreactivity
QVQLVVSGGGLVQAAGSLRLSCAASGLTFANYVMGWYRQAPGKERELVASISISGGSTYYADSEKGRFTISRDNAKNTVYLQMNSLKPEDTAVYYCAASFVSSYQYAYWGQVTQVTVSS | high polyreactivity
QVQLEESGGGLVQAGGSLRLSCAASGLTFPSNAMGWYRQATGKERALVASISKRGGRTYYADSVKGRFTISRDNAKHTVYLQMNSLKPEDTAVYDCATPYAYPGSVQYAGYNYWGQGTQVTVSS | high polyreactivity
QVQLVESGGGLVQAGGSLRLSCAASGSTWYYAMGWYRQAPGKERELVATISSGSRTYYADSVKGRFTISRDNAKNTVYLQMNSLKPEDTAVYYCAARESYAELNYWGQGTQVTVSS | high polyreactivity

Sequence | polyreactivity (PSR sort gate)
QVHLVESGGGLDQAGGSLRLSCAASGSTDGPYARGWSRQATGKERELVATINSSGSTNYADSLKGRFTISRDNAKNTVYLQMHSLKTEDTAVYYSASLHSYYWNDYWGQGTQVTVSS | low polyreactivity
QVQLVESGGGLVQAGGSLRLSCAASGLTFANYVMGWYRQAPGKERELVAAISGGGGSTHYADSVKGRFTISRDNAKNTVYLQMNSLKPEDTAVYYCNADKYSVYGEHPYDYWGQGTQVTVSS | low polyreactivity
QVQLVESGGGLVQEGRSLRLSCAASGLTFQYYAMGWYRPAPGKERELVAAISSGGDTYYADSVKGRFTISRDNAKNNVYFQMYSVKREDTAVYYCAARVVLYSRSTYYYWGQGTQVTVSS | high polyreactivity
QVQLVESGGGLVQAGGSLRLSCAASGRIFVFYAMGWYRQAPGKERELVASITLTDGSTYYADSEKGRFTISRDNAKNTVYLQMNSLKPEDTAVYYCAARISGGSTFRYQRMYYWGQGTQVTVSS | low polyreactivity
QVQLVESGGGLVQAGGSLRLSCAASGRTFIWNAMGWYRQAPGKERELVADISIRGGSTNYADSVKGRFTISRDNAKNTVYFQMNSLKPEDTAVYYCAAEYYDSGNDYWGQGTQVTVSS | low polyreactivity
QVQLVESGGGLVQAGGSLRLSCAASGFTFGTYAMGWYRQAPGKERELVASIRTDDSTYADSVKGRFTISRDNAKNTVYLQMNSLKPEDTAVYYCAVDGYVIYVYDTYDYWGQGTQVTVSS | low polyreactivity
QVQLVESGGGLVQAGGSLRLSCAASGRTFGNYAMGWYRQAPGKERELVAAITSSGGTTYYADSVKGRFTISRDYAKNTVYLQMNSLKPEDTAVYYCAARHYPRNSWGYDYWGQGTQVNVSS | high polyreactivity
QVQLVESGGGLVQAGGSLRLICAATGRIFSPNAMGWYRQAPGKERELVAAITTSGGITYYADSVKGRFTISRDNAKNTVYLQMNSLKPEDTAVYYCNTGYNGRLRDDYWGQGTQVTVSS | high polyreactivity
QVQLVESGGGLVQAGGSLRLSCAASGSTFRVYAMGWYRQAPGKERELVANISWGGGRTYYADSVKGRFTISRDNAKNTVYLQMNSLKPEDTAVYYCAADIAWYTHYHRIFDYWGQGTQVTVSS | low polyreactivity
QVQLVESGGGLVQAGGSLCLSCAASGIFVYNAMVWYRQAPGKEREFVAAINKSGASTFYADSVKGRFTISRDNAKNTVYLQMNSLKPEDTAVYYCRERDYWGQGTQVTVSS | low polyreactivity
QVQLVESGGGLVQAGGSLRLSCAASGFTFTIYTMGWYRQAPGKERELVAAISRRGGSTYYADSVKGRFTISRDNAKNTVYLQMNSLNPEDTAVYYCAAYVPQGYKLYYWGQGTQVTGSS | high polyreactivity
QVQLVESGGGLVQAGGSLRLICAASGVIFTGYTMGWYREAPGKESELVAAISYRGGSTYYADSVKGRFTISRDNAKITVYFQMNRLKPEDTAVYYCNAVWSNFRLGYDHWGQGTQVTVSS | high polyreactivity
QVQLVESGGGLVQAGGSLRLSCAASVFTFNDYAMGWYRQAPGKERELVAAIDWSGGRTYYADSVKGRFTISRDNAKNTVYLQMNSLKPEDTAVYYCAAVLYSRLYWYRLDYWGQGTQVTVSS | low polyreactivity
QVQLVDSGGGLVQAGGSLRLSSAASGFTFVAYAMGGYRQAPGKERELVATITKGGGGTYYADSVKGRFTISRDNAKNTVYLQMNSLKPEDTAVYYCAADRQYRGRTRYVYAPLYYWGHGTQVTVSS | high polyreactivity
QVQLVESGGGLVQAGGSLRLSCAASGFIIKANAMGWYRQAPGKERELVASITFGGDSTYYADSVKGRFTISRDNAKNTVYLQMNSLKPEDTAVYYCNTRRRSYRTYYYWGQGTQVTVLS | low polyreactivity
QVQLVESGGGLVQAGGSLRLSCAASGFTFKAYAMGWYRQAPGKERELVAAITYSGGSTYYADSVKGRFTISRDNAKNTVYLQMNSLKPEDTAVYYCNADSDLDLYWKMDYWGQGTQVTVSS | low polyreactivity
QVQLVESGGGLVQAGGSLRISCAASGFIFAHNAMGWYRQAPGKERELVAAITSSGGSTYYADSVKGRFTISRDNAKNTVYLQMNSLKPEDTAVYYCAAYWKLGGFRYGYWGQGTQVTVSS | high polyreactivity
QVQLVESGGGLVQAGGSLRLICAASGRTFDRYDMGWYRPAPGKERALVATISSSGGSTYYADSVKGRFTISRDNAKNTVYLQMNSLKPEDTAVYYCAADPSGYYWGQGSQVTVSS | low polyreactivity
QVQLVESGGGLVQAGGSLRLSCAASGSIFGSNAMGWYRQAPGKERELVAAISSGSTYYADSVKGRFTISRDNAKNTVYLQMNSLKPEDTAVYYCNARSLLYEFDYWGQGTQVTVSS | low polyreactivity
QVQHVESGGGLVQAGGSLRLSCAASGSILRPNVMGWYRQAPGKDRELVARISSRGVNTYYADSVKGRFTISRDNAKNTVYLQMNSLKPEDTAVYYCNARRAQYYWNRSPKYDYWGQGTQVTVSP | high polyreactivity
